{"source": "patent US20110239327A1", "about": "“Nematicidal Effects of Cysteine Proteinases and Methods of Use Thereof to Treat Nematode Infestation” (priority 2007, published 2011)", "molecules": {"B1": {"name": "actinidin (protein, UniProt P00785 127-380, looked up)", "Actinidain": "LPSYVDWRSAGAVVDIKSQGECGGCWAFSAIATVEGINKIVTGVLISLSEQELIDCGRTQNTRGCNVGYITDGFQFIINNGGINTEENYPYTAQDGECNVDLQNEKYVTIDTYENVPYNNEWALQTAVTYQPVSVALDAAGDAFKHYSSGIFIGPCGTAIDHAVTIVGYGTEGGIDYWIVKNSWDTTWGEEGYMRILRNVGGAGTCGIATMPSYPVKYNNQNHPKSYSSLINPPAFSMSNDGPVGVDDGQRYSA", "notes": "cysteine proteinase from kiwi fruit (Actinidia chinensis), Merops C01.007"}}, "key": {"[1]": {"tested_on": "Heterorhabditis megidis", "assay": "In vitro effect on the beneficial nematode Heterorhabditis megidis", "format": "cell-based", "description": "(§1) Eggs of M. incognita race 1 from North Carolina State University, USA were collected from tomato-infected roots grown in a glasshouse at 23° C. in a 16:8 h light-dark regime. Eggs were extracted using 1% hypochlorite (NaClO) solution (Hussey and Barker, 1973) or by picking egg masses from tomato-infected roots. Juveniles (J2) were hatched from the eggs and egg masses in water. Heterodera glycines eggs were obtained from soil samples stored in Rothamsted-Research. Second stage juveniles (J2) were hatched from the eggs in water after 10 days. Pratylenchus penetrans were a gift from Dr. Deeren Anne-Marie from the Institute for Agricultural and Fisheries Research, Merelbeke, Belgium. The beneficial nematodes Steinernema feltiae and Heterorhabditis megidis were a gift from Dr. Paul Williams from Becker Underwood.\n(§2) Control wells were set up which contained J2s and distilled water with 16 mM L-cysteine. Each enzyme concentration and the controls were set up in duplicate (i.e. n=2). The actual number of active J2s per well was counted with the aid of an Olympus inverted microscope, prior to the addition of the enzymes, and then the J2s were incubated in the dark at room temperature for 2 hs, 16 hs, 24 hs or 40 hr. The number of live and dead J2s per well was counted after each enzyme incubation. The same procedure was followed when setting up further experiments to compare the effects of these enzymes with Heterodera glycines J2, Pratylenchus penetrans, Steinernema feltiae and Heterorhabditis megidis.\n(§3) The beneficial nematodes Hetorhabditis megidis and Steinernema feltiae were incubated with dilutions of actinidin, bromelain and pappain from papaya latex (see concentrations used in table 3). These nematodes reacted differentially to these cysteine proteinases (Tables 4 and 5). […] S. feltiae were dead at all concentrations of actinidin tested. […] After 16 hs of observation the enzyme solutions were diluted with water (to half of the initial concentrations) however, no change in nematode movement was observed after 24 hs."}, "[2]": {"tested_on": "Steinernema feltiae", "assay": "In vitro effect on the beneficial nematode Steinernema feltiae", "format": "cell-based", "description": "as §1, §2, §3"}, "[3]": {"tested_on": "M. incognita J2", "assay": "In planta bioassay, two soil applications: nematode infection of tomato roots", "format": "in vivo, M. incognita on tomato plants", "conditions": "two soil applications of enzyme (250 μM papain, 2.2 μM bromelain, 3.3 mM actinidin as printed), soil 16% organic matter, 11 days", "description": "Oxamyl is supplied as 10% liquid Vydate. 125 μl of a solution 1000 fold dilution of 10% formulation (kindly supplied by DK from NIU) was applied to 5 g of the soil mixture with 16% organic matter, to give a partial nematicidal effect. Soil mixtures were wetted with PBS pH 7.2, 16 hrs prior nematode application of 1000 or 2000 M. incognita J2. Infected soil mixtures were treated with water (control) or 250 μM of active papain in 16 mM of L-cysteine or a combination of Vydate and 250 μM of active papain in 16 mM of L-cysteine. After 48 hs tomato seedlings one month old were added to the treated soils. After 11 days the roots were washed free of soil and chopped to approximately 2 mm pieces. The root pieces of each tomato plant was placed in muslin bags and stained with acid-fuchsin. The stained roots were examined under microscope and all the nematodes present in the roots were counted. […] After 48 hours tomato seedlings one month old were added to the treated soils and after 11 days post infection nematode development inside root tissues was assessed as described above.\nThe avermectins are macrocyclic lactones produced by the actinomycete Streptomyces avermitilis. […] After 48 hs tomato seedlings one month old were added to the treated soils and after 11 days post infection nematode development inside root tissues was assessed as described above. […]"}, "[4]": {"conditions": "enzyme concentration A (Table 3): actinidin 3.3 mM, bromelain 2.2 mM, papain 250 uM"}, "[5]": {"conditions": "enzyme concentration B: actinidin 1.7 mM, bromelain 1.1 mM, papain 125 uM"}, "[6]": {"conditions": "enzyme concentration C: actinidin 840 uM, bromelain 560 uM, papain 62.5 uM"}}}
{"molecule": "B1", "values": [{"measurement": "nematode motility or behaviour", "setting": "[1]; [4]", "result": "All paralysed"}, {"measurement": "nematode motility or behaviour", "setting": "[1]; [5]", "result": "All paralysed"}, {"measurement": "nematode motility or behaviour", "setting": "[1]; [6]", "result": "All paralysed"}, {"measurement": "effect on H. megidis", "setting": "[1]; higher concentrations", "result": "paralysed"}, {"measurement": "effect on H. megidis", "setting": "[1]; lower concentrations", "result": "only affected slightly"}, {"measurement": "state of S. feltiae", "setting": "[2]; all concentrations of actinidin tested", "result": "dead"}, {"measurement": "nematode motility or behaviour", "setting": "[2]; [4]", "result": "All dead"}, {"measurement": "nematode motility or behaviour", "setting": "[2]; [5]", "result": "All dead"}, {"measurement": "nematode motility or behaviour", "setting": "[2]; [6]", "result": "All dead"}, {"measurement": "nematode motility or behaviour", "setting": "[2]; enzyme concentration D: actinidin 420 uM, bromelain 280 uM, papain 31 uM", "result": "All dead"}, {"measurement": "nematode motility or behaviour", "setting": "[2]; enzyme concentration E: actinidin 210 uM, bromelain 140 uM, papain 15 uM", "result": "All dead"}, {"measurement": "nematode motility or behaviour", "setting": "[2]; enzyme concentration F: actinidin 105 uM, bromelain 70 uM, papain 7.5 uM", "result": "All dead"}, {"measurement": "reduction of nematode infection of plants", "setting": "[3]", "result": 99, "unit": "%"}]}
